# Literature values as cited in US20240238439A1, “HER3-BINDING ANTIBODY-DRUG CONJUGATE” (Hummingbird Bioscience Pte. Ltd., priority 2023, published 2024).
# What was measured:
# human HER3 = human HER3 (Homo sapiens, UniProt P21860)
# [1] = target: interaction between HER3 and HER2 (Homo sapiens, UniProt P21860); conditions: dose-dependent
# [2] = target: interaction between HER3 and EGFR (Homo sapiens, UniProt P21860)
# [3] = test system: HER3 overexpressing cells
# [4] = test system: HER3-mediated signalling in cells of HER3-expressing cancer cell lines; conditions: in vitro
# [5] = test system: HER3-mediated signalling in HER3-expressing human cancer cell line-derived xenograft tumors; conditions: in vivo
# [6] = test system: xenograft tumors derived from a human cancer cell line harbouring an NRG gene fusion
# cancer cells = conditions: in vitro
# [7] = test system: human cancer cell line-derived xenograft tumors; conditions: in vivo
# [8] = test system: thyroid cancer cell lines harbouring the V600E BRAF mutation
# [9] = Differential Scanning Fluorimetry
molecule,measurement,setting,value
"10D1F hIgG1: HER3-binding antibody clone 10D1F (VH SEQ ID NO:33, VL SEQ ID NO:58) in human IgG1/Vκ format (antibody, V domains shown) VH: QVQLQESGPGLVKPSQTLSLTCTVSGYSITSGYSWHWIRQHPGKGLEWIGSIRYSGGTDYNPSLKSLVTISADTSKNQFSLKLSSVTAADTAVYYCARMTTAPWYPFDYWGQGTTVTVSS VL: DIQMTQSPSSVSASVGDRVTITCKASQIVGSNVAWYQQKPGKAPEPLIYSASYLYSGVPSRFSGSGSGTDFTLTISSLQPEDFATYYCQQYSSHPLTFGQGTKLEIK",binding to human HER3,human HER3,high affinity and specificity
same,cross-reactivity with other human EGFR family members,human HER3,no cross-reactivity
same,ligand dependence of binding to HER3,human HER3,ligand (NRG)-independent
same,affinity of binding to human HER3,human HER3; in the presence or absence of human NRG1,subpicomolar
same,"binding to cyno, mouse and rat HER3","cyno, mouse and rat HER3",high-affinity binding
same,inhibition of interaction between HER3 and HER2,[1],highly potent
same,inhibition of interaction between HER3 and EGFR,[2],inhibits interaction between HER3 and EGFR in a dose-dependent fashion
same,ADCC activity,[3],induces ADCC activity against HER3 overexpressing cells in a dose-dependent manner
same,HER3-mediated signalling,[4],inhibits HER3-mediated signalling
same,HER3-mediated signalling,[5],inhibits HER3-mediated signalling
same,growth of xenograft tumors,[6],extremely potent at inhibiting growth
same,growth of cancer cells,cancer cells,potently inhibits the growth of cancer cells in vitro
same,growth of xenograft tumors,[7],potently inhibits growth of human cancer cell line-derived xenograft tumors in vivo
same,in vitro proliferation,[8],inhibits in vitro proliferation
same,melting temperature,[9],70.0 °C
